Residue numbers refer to the chain shown, from its start. Blank lines part the entries; values can stand above or below the binder they belong to.
Target: Human CD3e/g protein (human) (UniProt P07766)
Assay: ELISA, coated hCD3e/g

EC50: 0.21 nM | OD450 nm at 0.000853 nM: 0.207 OD450 nm | OD450 nm at 0.0043 nM: 0.12 OD450 nm | OD450 nm at 0.02 nM: 0.24 OD450 nm | OD450 nm at 0.11 nM: 0.89 OD450 nm | OD450 nm at 0.53 nM: 3.2 OD450 nm | OD450 nm at 2.67 nM: 3.64 OD450 nm | OD450 nm at 13.3 nM: 3.67 OD450 nm | OD450 nm at 66.7 nM: 3.67 OD450 nm
B1: mAb001 (antibody, V domains shown)
VH: QVQLQQSGPELVKPGASVKISCKASGYSFTNYYMHWVKQRPGQGLEWIGWTYPGNNNIKYNEKFKGKATLTADTSSSTAYMQLSSLTSEDSAVYYCARDGYGYYFFDYWGQGIILTVSS
VL: DIVMSQSPSSLAVSAGEKVTMSCKSSQSLLNNRTRKNYLAWYQQKPGQSPKLLIYWASTRESGVPDRFTGSGSGTDFTLTISSVQAEDLAIYYCKQSYTLRTFGGGTKLAIK

EC50: 0.22 nM | OD450 nm at 0.000853 nM: 0.123 OD450 nm | OD450 nm at 0.0043 nM: 0.111 OD450 nm | OD450 nm at 0.02 nM: 0.27 OD450 nm | OD450 nm at 0.11 nM: 0.76 OD450 nm | OD450 nm at 0.53 nM: 2.96 OD450 nm | OD450 nm at 2.67 nM: 3.39 OD450 nm | OD450 nm at 13.3 nM: 3.47 OD450 nm | OD450 nm at 66.7 nM: 3.41 OD450 nm
B2: mAb007 (antibody, V domains shown)
VH: QVQLQQSGPELVKPGASVKISCKASGSTFTDNYIHWVKQRPGQGLEWIGWIYPGSVNIKYNEKFKDKATLTADTSSTTAYMQLSSLSSEDSAIYYCARDISRYYFDYWGQGTTLTVSS
VL: B1 VL with K18R, S22N, N32S, I91V, Y98F, T99I

Reference: patent publication US20250346668A1
